Target: hnRNP F/H (human (endogenous in 293))
Experiment: co-IP; extracts of 293 cells expressing FLAG-SRSF10, RS1-FLAG, RS2-FLAG or RS1-ΔΔ-FLAG, lysed in NET-2 buffer (50 mM Tris-HCl pH 7.4, 150 mM NaCl, 0.05% NP-40), treated with RNase A; anti-hnRNP F, H or K antibodies on protein G magnetic beads, overnight at 4°C; blot with anti-FLAG; cells treated or not with oxaliplatin

Chain of FLAG-SRSF10 (O75494 whole entry): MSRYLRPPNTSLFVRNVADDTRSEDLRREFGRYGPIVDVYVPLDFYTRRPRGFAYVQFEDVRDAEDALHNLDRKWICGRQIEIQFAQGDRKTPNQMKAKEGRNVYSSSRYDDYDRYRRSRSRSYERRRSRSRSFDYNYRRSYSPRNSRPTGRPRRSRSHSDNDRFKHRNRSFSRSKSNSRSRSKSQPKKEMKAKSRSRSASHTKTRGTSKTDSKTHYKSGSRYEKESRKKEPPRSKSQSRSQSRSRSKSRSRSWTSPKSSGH

With “FLAG-SRSF10 (from UniProt O75494 1-262) (natural protein)” the percent of total SRSF10 associated was 0.5 to 1%.

— paper PMC5483951
